Assay results as given in PMC11202230, “The Improved Antineoplastic Activity of Thermophilic L-Asparaginase Tli10209 via Site-Directed Mutagenesis” (Biomolecules, 2024).
Where a chain is given by its changes, count along the chain named. Numbers in names are those of the source.

B1: L-asparaginase Tli10209 (Thermococcus litoralis DSM 5473; D50G/T70A) (protein)
chain: MSEKRKLERRGAEDMKRILIIGTGGTIASAKTDAGFKSVLTIDEILEKAGIKLKNGYEIDTRNILNIDSALIQPEDWERIAKEVYKALEDYDGIVITHGTDTLAYTASMLTFMIRGINKPVVLTGSMRPVTEEESDAPRNLKAAIRFAMEDVSGIFVAFMDKIMLGCRTSKIRALGLNAFMSINYPDVAYVKGEEVIYNLPQKRFKPKGEPVLDTKYEPRVVFIRLTPGLDGNAIDALVKAGYRGIVLEGYGAGGIPYRKRDILSKIREITPQIPVVMTTQALYDGVDLTKYEVGRKALEAGIIPAKDMTKETTITKLMWALGHTKNVEEVKEIMHTNYADEIEG
B2: L-asparaginase Tli10209 (Thermococcus litoralis DSM 5473) (protein)
chain: B1 chain with G50D, A70T
B3: L-asparaginase Tli10209 (Thermococcus litoralis DSM 5473; K48L/T70A) (protein)
chain: B1 chain with K48L, G50D
B4: L-asparaginase Tli10209 (Thermococcus litoralis DSM 5473; D50G) (protein)
chain: B1 chain with A70T
B5: L-asparaginase Tli10209 (Thermococcus litoralis DSM 5473; F36Y) (protein)
chain: B1 chain with F36Y, G50D, A70T
B6: L-asparaginase Tli10209 (Thermococcus litoralis DSM 5473; K48L) (protein)
chain: B1 chain with K48L, G50D, A70T
B7: L-asparaginase Tli10209 (Thermococcus litoralis DSM 5473; F36Y/T70A) (protein)
chain: B1 chain with F36Y, G50D
B8: L-asparaginase Tli10209 (Thermococcus litoralis DSM 5473; T70A) (protein)
chain: B1 chain with G50D

What follows are proteins tested on NC(=O)C[C@H](N)C(=O)O (assay: Nessler reagent assay of ammonia, Michaelis-Menten fit). Conditions: pH 10, 80 °C, 0.5-18.0 mM L-asparagine, free enzyme.
Assay type: biochemical, Thermococcus litoralis
Text: Nessler reagent assay of ammonia, Michaelis-Menten fit on L-asparaginase Tli10209
In the case of B1, the Km is reported as 2.68 mM, the kcat is reported as 2050 s⁻¹ and the kcat/Km is reported as 764000 M⁻¹ s⁻¹.
B2 was tested, and the Km was 6.78 mM, the kcat was 2300 s⁻¹ and the kcat/Km was 340000 M⁻¹ s⁻¹.
Protein B3 has a Km of 6.65 mM, a kcat of 2760 s⁻¹ and a kcat/Km of 415000 M⁻¹ s⁻¹.
B4 gave a Km of 9.03 mM, a kcat of 3890 s⁻¹ and a kcat/Km of 431000 M⁻¹ s⁻¹.
B5 gave a Km of 7.00 mM, a kcat of 2500 s⁻¹ and a kcat/Km of 357000 M⁻¹ s⁻¹.
Work on B6 yielded a Km of 9.62 mM, a kcat of 5080 s⁻¹ and a kcat/Km of 528000 M⁻¹ s⁻¹.
With B7 the Km was 6.28 mM, the kcat was 2930 s⁻¹ and the kcat/Km was 466000 M⁻¹ s⁻¹.
B8 was tested, and the Km was 7.90 mM, the kcat was 4150 s⁻¹ and the kcat/Km was 525000 M⁻¹ s⁻¹.
